Laboratory results taken from patent US20180298361A1 (CHO PHARMA, published 2018).
Each block holds one binder with its values, some of them ahead of it.

Legend:
[1] = molecular target: T1, recombinant soluble FcγRIIIA (UniProt P08637 17-208, limits assumed); assay: ELISA; recombinant soluble FcγRIIIA coated on plate; the reference itself
T1 construct: also called FcγIIIA; FcTRIIIA
Protocol: (§1) Microtiter plate (Corning® 96 Well Clear Flat Bottom Polystyrene High Bind, #9018) was coated with 50 ng/well of recombinant soluble FcγRIIIA diluted in 50 mM Bicarbonate/carbonate coating buffer (pH 10) overnight at 4° C. The plate was then washed 3 times with PBST (0.05% Tween 20 in PBS) and blocked with 5% BSA in PBST for 1 h at room temperature. The binding activity of glycoengineered antibodies (Rtx G1-G16) was determined for serial eight dilutions, starting with concentration of 100 μg/m1 in 2% BSA/PBST in duplicates. The plate was incubated for 1 h at room temperature, and washed 3 times with PBST. Next, 100 μl of goat anti-human IgG conjugated to horseradish peroxidase (Jackson immune, #109-035-088) in 2% BSA/PBST was added per well and incubated for 30 min at room temperature. The plate was washed 5 times with PBST then 100 μL per well of TMB substrate (eBioscience, #00-4201-56) was added and the resulting plate was incubated in the dark 15 min at room temperature. The absorbance value was determined at 450 nm in an ELISA reader (Molecular Devices Corporation, Sunnyvale, Calif., USA).

[2] = molecular target: T1, recombinant soluble FcγRIIIA; assay: ELISA; recombinant soluble FcγRIIIA coated on plate, antibody titrated, anti-human IgG-HRP detection
Protocol: as §1

[3] = molecular target: T1, recombinant soluble FcγRIIIA; assay: ELISA; recombinant soluble FcγRIIIA coated on plate; against commercial Rituximab
Protocol: as §1

T1 sequence (P08637 17-208 limits assumed): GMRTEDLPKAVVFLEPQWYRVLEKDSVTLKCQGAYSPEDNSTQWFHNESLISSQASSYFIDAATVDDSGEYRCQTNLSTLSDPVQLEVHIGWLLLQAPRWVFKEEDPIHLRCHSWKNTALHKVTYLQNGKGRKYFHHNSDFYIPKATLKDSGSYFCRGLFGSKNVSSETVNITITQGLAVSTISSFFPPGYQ

B1: Commercial Rituximab (antibody, human IgG1, kappa)
heavy: not shown
light: QIVLSQSPAILSASPGEKVTMTCRASSSVSYIHWFQQKPGSSPKPWIYATNLASGVPVRFSGSGSGTSYSLTISRVEAEDAATYYCQQWTSNPPTFGGGTKLEIKRTVAAPSVFIFPPSDEQLKSGTASVVCLLNNFYPREAKVQWKVDNALQSGNSQESVTEQDSKDSTYSLSSTLTLSKADYEKHKVYACEVTHQGLSSPVTKSFNRGEC
modifications: heterogeneous Fc N-glycans at N297: core-fucosylated biantennary complex type oligosaccharides carrying 0-2 galactose (G0F, G1F, G2F)
notes: DrugBank DB00073; also called non-modified Rituximab; original Rituximab
EC50 improvement Folds [1]: 1 fold
EC50 [2]: 1.04 mg/L
Maxi binding (A450 nm) [2]: 1.2 A450 nm

B3: Rtx-G2 (antibody, human IgG1, kappa)
heavy: not shown
light: B1 light
modifications: homogeneous non-fucosylated N-glycan G2 (high mannose type, Man9GlcNAc2) at Asn-297
notes: also called glycoengineered Rituximab G2; Man9GlcNAc2 glycoform
EC50 [2]: 1.05 mg/L
Maxi binding (A450 nm) [2]: 1.1 A450 nm
EC50 improvement Folds [3]: ~1 fold

B4: Rtx-G1 (antibody, human IgG1, kappa)
heavy: not shown
light: B1 light
modifications: homogeneous non-fucosylated N-glycan G1 (high mannose type, Man5GlcNAc2) at Asn-297
notes: also called glycoengineered Rituximab G1; Man5GlcNAc2 glycoform
EC50 [2]: 0.16 mg/L
Maxi binding (A450 nm) [2]: 1.4 A450 nm
EC50 improvement Folds [3]: 6.5 fold

B5: Rtx-G4 (antibody, human IgG1, kappa)
heavy: not shown
light: B1 light
modifications: homogeneous non-fucosylated N-glycan G4 (hybrid type; structure in FIG. 15) at Asn-297
notes: also called glycoengineered Rituximab G4; hybrid type glycoform
EC50 [2]: 0.394 mg/L
Maxi binding (A450 nm) [2]: 1.2 A450 nm
EC50 improvement Folds [3]: 2.7 fold

B10: Rtx-G6 (antibody, human IgG1, kappa)
heavy: not shown
light: B1 light
modifications: homogeneous non-fucosylated N-glycan G6 (tri-antennary complex type with terminal alpha-2,6 sialic acids) at Asn-297
notes: also called glycoengineered Rituximab G6; tri-antennary complex type glycoform
EC50 [2]: 0.032 mg/L
Maxi binding (A450 nm) [2]: 2.8 A450 nm
EC50 improvement Folds [3]: 34 fold

B11: Rtx-G9 (antibody, human IgG1, kappa)
heavy: not shown
light: B1 light
modifications: homogeneous N-glycan G9 without core fucose (bi-antennary complex type with alpha 1,2 fucose on one of the two terminal galactose) at Asn-297
notes: also called glycoengineered Rituximab G9; bi-antennary complex type glycoform
EC50 [2]: 0.061 mg/L
Maxi binding (A450 nm) [2]: 2.4 A450 nm
EC50 improvement Folds [3]: 17 fold

B12: Rtx-G7 (antibody, human IgG1, kappa)
heavy: not shown
light: B1 light
modifications: homogeneous non-fucosylated N-glycan G7 (bi-antennary complex type with terminal di-galactose) at Asn-297
notes: also called glycoengineered Rituximab G7; bi-antennary complex type glycoform
EC50 [2]: 0.031 mg/L
Maxi binding (A450 nm) [2]: 2.5 A450 nm
EC50 improvement Folds [3]: 35 fold

B14: Rtx-G3 (antibody, human IgG1, kappa)
heavy: not shown
light: B1 light
modifications: homogeneous non-fucosylated N-glycan G3 (hybrid type; structure in FIG. 15) at Asn-297
notes: also called glycoengineered Rituximab G3; hybrid type glycoform
EC50 [2]: 0.32 mg/L
Maxi binding (A450 nm) [2]: 1.3 A450 nm
EC50 improvement Folds [3]: 3.2 fold

B15: Rtx-G8 (antibody, human IgG1, kappa)
heavy: not shown
light: B1 light
modifications: homogeneous non-fucosylated N-glycan G8 (bi-antennary complex type with bisected GlcNAc and terminal di-galactose) at Asn-297
notes: also called glycoengineered Rituximab G8; bi-antennary complex type glycoform
EC50 [2]: 0.034 mg/L
Maxi binding (A450 nm) [2]: 2.3 A450 nm
EC50 improvement Folds [3]: 32 fold

B17: Rtx-G5 (antibody, human IgG1, kappa)
heavy: not shown
light: B1 light
modifications: homogeneous non-fucosylated N-glycan G5 (tri-antennary complex type with terminal galactose residues) at Asn-297
notes: also called glycoengineered Rituximab G5; tri-antennary complex type glycoform
EC50 [2]: 0.031 mg/L
Maxi binding (A450 nm) [2]: 2.6 A450 nm
EC50 improvement Folds [3]: 35 fold

Results, then the binder that gave them:

EC50 [2]: 0.033 mg/L
Maxi binding (A450 nm) [2]: 2.6 A450 nm
EC50 improvement Folds [3]: 33 fold
B2: Rtx-G12 (antibody, human IgG1, kappa)
heavy: not shown
light: B1 light
modifications: homogeneous N-glycan G12 (bi-antennary complex type; structure only in FIG. 15) at Asn-297
notes: also called glycoengineered Rituximab G12; bi-antennary complex type glycoform

EC50 [2]: 0.034 mg/L
Maxi binding (A450 nm) [2]: 2.3 A450 nm
EC50 improvement Folds [3]: 32 fold
B6: Rtx-G15 (antibody, human IgG1, kappa)
heavy: not shown
light: B1 light
modifications: homogeneous N-glycan G15 (bi-antennary complex type; structure only in FIG. 15) at Asn-297
notes: also called glycoengineered Rituximab G15; bi-antennary complex type glycoform

EC50 [2]: 0.199 mg/L
Maxi binding (A450 nm) [2]: 2.4 A450 nm
EC50 improvement Folds [3]: 5.4 fold
B7: Rtx-G11 (antibody, human IgG1, kappa)
heavy: not shown
light: B1 light
modifications: homogeneous N-glycan G11 (bi-antennary complex type; structure only in FIG. 15) at Asn-297
notes: also called glycoengineered Rituximab G11; bi-antennary complex type glycoform

EC50 [2]: 0.048 mg/L
Maxi binding (A450 nm) [2]: 2.6 A450 nm
EC50 improvement Folds [3]: 22 fold
B8: Rtx-G13 (antibody, human IgG1, kappa)
heavy: not shown
light: B1 light
modifications: homogeneous N-glycan G13 (bi-antennary complex type; structure only in FIG. 15) at Asn-297
notes: also called glycoengineered Rituximab G13; bi-antennary complex type glycoform

EC50 [2]: 0.032 mg/L
Maxi binding (A450 nm) [2]: 2.5 A450 nm
EC50 improvement Folds [3]: 34 fold
B9: Rtx-G16 (antibody, human IgG1, kappa)
heavy: not shown
light: B1 light
modifications: homogeneous non-fucosylated N-glycan G16 (bi-antennary complex type with terminal alpha-2,6 sialic acids) at Asn-297
notes: also called glycoengineered Rituximab G16; bi-antennary complex type glycoform

EC50 [2]: 0.033 mg/L
Maxi binding (A450 nm) [2]: 2.4 A450 nm
EC50 improvement Folds [3]: 33 fold
B13: Rtx-G14 (antibody, human IgG1, kappa)
heavy: not shown
light: B1 light
modifications: homogeneous N-glycan G14 (bi-antennary complex type; structure only in FIG. 15) at Asn-297
notes: also called glycoengineered Rituximab G14; bi-antennary complex type glycoform

EC50 [2]: 0.043 mg/L
Maxi binding (A450 nm) [2]: 2.2 A450 nm
EC50 improvement Folds [3]: 26 fold
B16: Rtx-G10 (antibody, human IgG1, kappa)
heavy: not shown
light: B1 light
modifications: homogeneous N-glycan G10 without core fucose (bi-antennary complex type with alpha 1,3 fucose on both GlcNAc and terminal di-galactose) at Asn-297
notes: also called glycoengineered Rituximab G10; bi-antennary complex type glycoform
